Test results as given in patent US20240261333A1, “NOVEL TARGETS FOR ENHANCING ANTI-TUMOR IMMUNITY” (THE BROAD INSTITUTE, INC., priority 2021, published 2024).

T1: B3GNT2 (Homo sapiens, UniProt Q9NY97)
T1 construct: The respective ORFs of candidate genes [CD274 (NM_014143), MCL1 (NM_021960), JUNB (NM_002229), and B3GNT2 (NM_006577)] were synthesized; expressed in transfected cells; host or cells: A375 melanoma cells (lentiviral ORF overexpression)
T1 sequence (Q9NY97 1-397): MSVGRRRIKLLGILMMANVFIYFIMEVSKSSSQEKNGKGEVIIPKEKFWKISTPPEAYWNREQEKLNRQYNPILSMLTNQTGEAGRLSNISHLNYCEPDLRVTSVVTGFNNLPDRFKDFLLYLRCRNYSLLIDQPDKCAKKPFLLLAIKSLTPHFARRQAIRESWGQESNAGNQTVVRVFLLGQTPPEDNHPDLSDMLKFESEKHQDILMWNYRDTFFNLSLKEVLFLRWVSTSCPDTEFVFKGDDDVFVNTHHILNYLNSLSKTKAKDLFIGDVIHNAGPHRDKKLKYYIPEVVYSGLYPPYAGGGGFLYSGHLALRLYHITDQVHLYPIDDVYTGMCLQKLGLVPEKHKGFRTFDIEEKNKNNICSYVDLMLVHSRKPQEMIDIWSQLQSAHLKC


Biological target: T1, B3GNT2
Test: Co-IP of FLAG-tagged B3GNT2 followed by mass spectrometry
Type: cell-based
Design: C-term IgG / C-term flag: unit not given here
Conditions: mass spectrometry count, unit not given; for C-term flag / N-term FLAG: Co-IP with FLAG antibody; for C-term flag / C-term IgG: C-terminally FLAG-tagged B3GNT2; for N-term FLAG / N-term IgG: N-terminally FLAG-tagged B3GNT2; for C-term IgG / N-term IgG: Co-IP with IgG control antibody
In short: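 Co-purifying proteins were identified by fractionated nano-LC–MS/MS on an Orbitrap Elite, run data-dependent. Beforehand, lysates in 1% Triton X-100/HEPES buffer were incubated overnight at 4° C with anti-FLAG or […] and pulled down on Protein A/G magnetic beads for 4 h. Duplicate biological replicates.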

Molecule	C-term flag	N-term FLAG	C-term IgG	N-term IgG
MAGT1 (protein) QRKKEMVLSEKVSQLMEWTNKRPVIRMNGDKFRRLVKAPPRNYSVIVMFTALQLHRQCVVCKQADEEFQILANSWRYSSAFTNRIFFAMVDFDEGSDVFQMLNMNSAPTFINFPAKGKPKRGDTYELQVRGFSAEQIARWIADRTDVNIRVIRPPNYAGPLMLGLLLAVIGGLVYLRRSNMEFLFNKTGWAFAALCFVLAMTSGQMWNHIRGPPYAHKNPHTGHVNYIHGSSQAQFVAETHIVLLFNGGVTLGMVLLCEAATSDMDIGKRKIMCVAGIGLVVLFFSWMLSIFRSKYHGYPYSFLMS	2	0	0	0
CCT7 (protein) MDKLIVDGRGKATISNDGATILKLLDVVHPAAKTLVDIAKSQDAEVGDGTTSVTLLAAEFLKQVKPYVEEGLHPQIIIRAFRTATQLAVNKIKEIAVTVKKADKVEQRKLLEKCAMTALSSKLISQQKAFFAKMVVDAVMMLDDLLQLKMIGIKKVQGGALEDSQLVAGVAFKKTFSYAGFEMQPKKYHNPKIALLNVELELKAEKDNAEIRVHTVEDYQAIVDAEWNILYDKLEKIHHSGAKVVLSKLPIGDVATQYFADRDMFCAGRVPEEDLKRTMMACGGSIQTSVNALSADVLGRCQVFEETQIGGERYNFFTGCPKAKTCTFILRGGAEQFMEETERSLHDAIMIVRRAIKNDSVVAGGGAIEMELSKYLRDYSRTIPGKQQLLIGAYAKALEIIPRQLCDNAGFDATNILNKLRARHAQGGTWYGVDINNEDIADNFEAFVWEPAMVRINALTAASEAACLIVSVDETIKNPRSTVDAPTAAGRGRGRGRPH	2	0	0	0
CD70 (protein) MPEEGSGCSVRRRPYGCVLRAALVPLVAGLVICLVVCIQRFAQAQQQLPLESLGWDVAELQLNHTGPQQDPRLYWQGGPALGRSFLHGPELDKGQLRIHRDGIYMVHIQVTLAICSSTTASRHHPTTLAVGICSPASRSISLLRLSFHQGCTIASQRLTPLARGDTLCTNLTGTLLPSRNTDETFFGVQWVRP	2	0	0	0
ARHGEF2 (protein, UniProt Q92974 1-986, looked up) Rho guanine nucleotide …: MSRIESLTRARIDRSRELASKTREKEKMKEAKDARYTNGHLFTTISVSGMTMCYACNKSITAKEALICPTCNVTIHNRCKDTLANCTKVKQKQQKAALLKNNTALQSVSLRSKTTIRERPSSAIYPSDSFRQSLLGSRRGRSSLSLAKSVSTTNIAGHFNDESPLGLRRILSQSTDSLNMRNRTLSVESLIDEAEVIYSELMSDFEMDEKDFAADSWSLAVDSSFLQQHKKEVMKQQDVIYELIQTELHHVRTLKIMTRLFRTGMLEELHLEPGVVQGLFPCVDELSDIHTRFLSQLLERRRQALCPGSTRNFVIHRLGDLLISQFSGPSAEQMCKTYSEFCSRHSKALKLYKELYARDKRFQQFIRKVTRPAVLKRHGVQECILLVTQRITKYPLLISRILQHSHGIEEERQDLTTALGLVKELLSNVDEGIYQLEKGARLQEIYNRMDPRAQTPVPGKGPFGREELLRRKLIHDGCLLWKTATGRFKDVLVLLMTDVLVFLQEKDQKYIFPTLDKPSVVSLQNLIVRDIANQEKGMFLISAAPPEMYEVHTASRDDRSTWIRVIQQSVRTCPSREDFPLIETEDEAYLRRIKMELQQKDRALVELLREKVGLFAEMTHFQAEEDGGSGMALPTLPRGLFRSESLESPRGERLLQDAIREVEGLKDLLVGPGVELLLTPREPALPLEPDSGGNTSPGVTANGEARTFNGSIELCRADSDSSQRDRNGNQLRSPQEEALQRLVNLYGLLHGLQAAVAQQDTLMEARFPEGPERREKLCRANSRDGEAGRAGAAPVAPEKQATELALLQRQHALLQEELRRCRRLGEERATEAGSLEARLRESEQARALLEREAEEARRQLAALGQTEPLPAEAPWARRPVDPRRRSLPAGDALYLSFNPPQPSRGTDRLDLPVTTRSVHRNFEDRERQELGSPEERLQDSSDPDTGSEEEGSSRLSPPHSPRDFTRMQDIPEETESRDGEAVASES	2	0	0	0
HSPD1 (protein) AKDVKFGADARALMLQGVDLLADAVAVTMGPKGRTVIIEQSWGSPKVTKDGVTVAKSIDLKDKYKNIGAKLVQDVANNTNEEAGDGTTTATVLARSIAKEGFEKISKGANPVEIRRGVMLAVDAVIAELKKQSKPVTTPEEIAQVATISANGDKEIGNIISDAMKKVGRKGVITVKDGKTLNDELEIIEGMKFDRGYISPYFINTSKGQKCEFQDAYVLLSEKKISSIQSIVPALEIANAHRKPLVIIAEDVDGEALSTLVLNRLKVGLQVVAVKAPGFGDNRKNQLKDMAIATGGAVFGEEGLTLNLEDVQPHDLGKVGEVIVTKDDAMLLKGKGDKAQIEKRIQEIIEQLDVTTSEYEKEKLNERLAKLSDGVAVLKVGGTSDVEVNEKKDRVTDALNATRAAVEEGIVLGGGCALLRCIPALDSLTPANEDQKIGIEIIKRTLKIPAMTIAKNAGVEGSLIVEKIMQSSSEVGYDAMAGDFVNMVEKGIIDPTKVVRTALLDAAGVASLLTTAEVVVTEIPKEEKDPGMGAMGGMGGGMGGGMF	6	10	2	0
MSN (protein) PKTISVRVTTMDAELEFAIQPNTTGKQLFDQVVKTIGLREVWFFGLQYQDTKGFSTWLKLNKKVTAQDVRKESPLLFKFRAKFYPEDVSEELIQDITQRLFFLQVKEGILNDDIYCPPETAVLLASYAVQSKYGDFNKEVHKSGYLAGDKLLPQRVLEQHKLNKDQWEERIQVWHEEHRGMLREDAVLEYLKIAQDLEMYGVNYFSIKNKKGSELWLGVDALGLNIYEQNDRLTPKIGFPWSEIRNISFNDKKFVIKPIDKKAPDFVFYAPRLRINKRILALCMGNHELYMRRRKPDTIEVQQMKAQAREEKHQKQMERAMLENEKKKREMAEKEKEKIEREKEELMERLKQIEEQTKKAQQELEEQTRRALELEQERKRAQSEAEKLAKERQEAEEAKEALLQASRDQKKTQEQLALEMAELTARISQLEMARQKKESEAVEWQQKAQMVQEDLEKTRAELKTAMSTPHVAEPAENEQDEQDENGAEASADLRADAMAKDRSEEERTTEAEKNERVQKHLKALTSELANARDESKKTANDMIHAENMRLGRDKYKTLRQIRQGNTKQRIDEFESM	4	3	0	0
ILF3 (protein) MRPMRIFVNDDRHVMAKHSSVYPTQEELEAVQNMVSHTERALKAVSDWIDEQEKGSSEQAESDNMDVPPEDDSKEGAGEQKTEHMTRTLRGVMRVGLVAKGLLLKGDLDLELVLLCKEKPTTALLDKVADNLAIQLAAVTEDKYEILQSVDDAAIVIKNTKEPPLSLTIHLTSPVVREEMEKVLAGETLSVNDPPDVLDRQKCLAALASLRHAKWFQARANGLKSCVIVIRVLRDLCTRVPTWGPLRGWPLELLCEKSIGTANRPMGAGEALRRVLECLASGIVMPDGSGIYDPCEKEATDAIGHLDRQQREDITQSAQHALRLAAFGQLHKVLGMDPLPSKMPKKPKNENPVDYTVQIPPSTTYAITPMKRPMEEDGEEKSPSKKKKKIQKKEEKAEPPQAMNALMRLNQLKPGLQYKLVSQTGPVHAPIFTMSVEVDGNSFEASGPSKKTAKLHVAVKVLQDMGLPTGAEGRDSSKGEDSAEETEAKPAVVAPAPVVEAVSTPSAAFPSDATAEQGPILTKHGKNPVMELNEKRRGLKYELISETGGSHDKRFVMEVEVDGQKFQGAGSNKKVAKAYAALAALEKLFPDTPLALDANKKKRAPVPVRGGPKFAAKPHNPGFGMGGPMHNEVPPPPNLRGRGRGGSIRGRGRGRGFGGANHGGYMNAGAGYGSYGYGGNSATAGYSQFYSNGGHSGNASGGGGGGGGGSSGYGSYYQGDNYNSPVPPKHAGKKQPHGGQQKPSYGSGYQSHQGQQQSYNQSPYSNYGPPQGKQKGYNHGQGSYSYSNSYNSPGGGGGSDYNYESKFNYSGSGGRSGGNSYGSGGASYNPGSHGGYGGGSGGGSSYQGKQGGYSQSNYNSPGSGQNYSGPPSSYQSSQGGYGRNADHSMNYQYR	5	2	0	0
SPRR1A (protein) MNSQQQKQPCTPPPQPQQQQVKQPCQPPPQEPCIPKTKEPCHPKVPEPCHPKVPEPCQPKVPEPCQPKVPEPCPSTVTPAPAQQKTKQK	3	4	0	0
